{"source": "paper PMC12046049", "about": "“Filamin C dimerisation is regulated by HSPB7” (Nature Communications, 2025)", "binders": {"B1": {"name": "HSPB5 C-terminal peptide (cognate peptide of HSPB5ACD) (peptide)", "chain": "ERTIPITRE", "modifications": "Limits are not printed. 156-164, containing the IPI motif, is taken by convention from the peptide in the HSPB5 ACD-peptide structure PDB 4M5S; check residues come from the IPI motif, not numbered in"}, "B2": {"name": "FLNCd24 (domain 24 of filamin C, residues 2630-2724), wild type (domain or fragment, human)", "chain": "GSKFSSDASKVVTRGPGLSQAFVGQKNSFTVDCSKAGTNMMMVGVHGPKTPCEEVYVKHMGNRVYNVTYTVKEKGDYILIVKWGDESVPGSPFKVKV", "notes": "residual Gly-Ser overhang left on the N-terminus after TEV cleavage of the His6 tag; filamin C, human, C-terminal Ig-like domain 24, residues 2630-2724; also called FLNCd24 WT; source: E. coli BL21(DE3), purified (HisTrap, TEV cleavage); not shown: His6, N-terminal, cleaved"}, "B3": {"name": "FLNCd24^Y2683E (phosphomimic) (domain or fragment, human)", "chain": "B2 chain with Y56E", "notes": "residual Gly-Ser overhang left on the N-terminus after TEV cleavage of the His6 tag; filamin C, human, domain 24, residues 2630-2724, Y2683E; source: E. coli BL21(DE3), purified (HisTrap, TEV cleavage); not shown: His6, N-terminal, cleaved"}, "B4": {"name": "HSPB7ACD (α-crystallin domain, residues 78-162 of isoform 2) (domain or fragment)", "chain": "not shown", "notes": "residual Gly-Ser overhang left on the N-terminus after TEV cleavage of the His6 tag; HSPB7, human, core α-crystallin domain, residues 78-162 of isoform 2; numbers count on: isoform 2 (Q9UBY9-2); source: E. coli BL21(DE3), purified (HisTrap, TEV cleavage, HiTrap Q); not shown: His6, N-terminal, cleaved"}, "B5": {"name": "FLNCd24^T2677D (phosphomimic) (domain or fragment, human)", "chain": "B2 chain with T50D", "notes": "residual Gly-Ser overhang left on the N-terminus after TEV cleavage of the His6 tag; filamin C, human, domain 24, residues 2630-2724, T2677D; source: E. coli BL21(DE3), purified (HisTrap, TEV cleavage); not shown: His6, N-terminal, cleaved"}, "B6": {"name": "HSPB7ACD^C131S (domain or fragment)", "chain": "not shown", "notes": "residual Gly-Ser overhang left on the N-terminus after TEV cleavage of the His6 tag; HSPB7, human, core α-crystallin domain, residues 78-162 of isoform 2, C131S; numbers count on: isoform 2 (Q9UBY9-2); Mutation made to aid crystallisation; source: E. coli BL21(DE3), purified (HisTrap, TEV cleavage, HiTrap Q); not shown: His6, N-terminal, cleaved"}}, "key": {"[1]": {"target": "T1, HSPB5ACD (α-crystallin domain of HSPB5) (human)", "T1 chain": "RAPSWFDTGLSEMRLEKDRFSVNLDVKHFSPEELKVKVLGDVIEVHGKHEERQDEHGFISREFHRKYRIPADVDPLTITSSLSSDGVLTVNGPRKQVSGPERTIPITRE", "assay": "native MS; ACD incubated with C-terminal peptide, peptide titration; 200 mM ammonium acetate pH 6.9; acetonitrile added to the source housing; fit with a Hill slope model for 1:1 binding", "conditions": "both partners purified"}, "[2]": {"target": "the molecule itself", "assay": "native MS; titration of FLNCd24 (WT or phosphomimic) alone; dimer to monomers; 200 mM ammonium acetate pH 6.9; three technical repeats"}, "[3]": {"target": "the molecule itself", "assay": "native MS; FLNCd24 alone, and mixed at a monomer ratio of 1:1 with HSPB7, HSPB7ΔN or HSPB7ACD; 200 mM ammonium acetate pH 6.9 (full-length HSPB7: 1 M)"}, "[4]": {"target": "T2, HSPB7ΔN (residues 78-175 of isoform 2) (human, UniProt Q9UBY9-2 78-175)", "T2 construct": "residual Gly-Ser overhang left on the N-terminus after TEV cleavage of the His6 tag; HSPB7, human, residues 78-175 of isoform 2 (lacks the N-terminal region); numbers count on: isoform 2 (Q9UBY9-2); source: E. coli BL21(DE3), purified (HisTrap, TEV cleavage, HiTrap Q); not shown: His6, N-terminal, cleaved", "assay": "native MS; HSPB7 construct at a range of FLNCd24 concentrations; competitive homo- and hetero-dimerisation fitted as a system of coupled equilibria; 200 mM ammonium acetate pH 6.9", "conditions": "both partners purified"}, "[5]": {"target": "B2", "assay": "native MS; HSPB7 construct at a range of FLNCd24 concentrations; competitive homo- and hetero-dimerisation fitted as a system of coupled equilibria; 200 mM ammonium acetate pH 6.9", "conditions": "both partners purified"}, "[6]": {"target": "B5", "assay": "native MS; HSPB7 construct at a range of FLNCd24 concentrations; competitive homo- and hetero-dimerisation fitted as a system of coupled equilibria; 200 mM ammonium acetate pH 6.9", "conditions": "both partners purified"}, "[7]": {"target": "B3", "assay": "native MS; HSPB7 construct at a range of FLNCd24 concentrations; competitive homo- and hetero-dimerisation fitted as a system of coupled equilibria; 200 mM ammonium acetate pH 6.9", "conditions": "both partners purified"}, "[8]": {"target": "B2", "assay": "crystal structure; HSPB7ACD^C131S and FLNCd24 mixed 4:1, heterodimer isolated by gel filtration in 20 mM HEPES pH 8.0; crystals in 0.1 mM HEPES, 20% w/v PEG 8000, pH 7.0; 2.9 Å", "conditions": "both partners purified"}, "[9]": {"target": "T3, HSPB1ACD (α-crystallin domain of HSPB1) (human)", "T3 construct": "HSPB1, human, α-crystallin domain; also called ACD of HSPB1", "assay": "native MS; ACD incubated with C-terminal peptide, peptide titration; 200 mM ammonium acetate pH 6.9; acetonitrile added to the source housing; fit with a Hill slope model for 1:1 binding", "conditions": "both partners purified"}}, "note": "Changes are numbered by the printed parent chain. In names and notes the source's numbering stands."}
{"binder": "B1", "values": [{"measurement": "Kd", "setting": "[1]", "value": "≤ 100000", "unit": "nM"}]}
{"binder": "B2", "values": [{"measurement": "Kd", "setting": "[2]", "value": "75.9 ± 8.4", "unit": "nM"}, {"measurement": "stoichiometry N", "setting": "[3]", "value": 2}, {"measurement": "Kd", "setting": "[4]", "value": "6.7 ± 1.4", "unit": "nM"}]}
{"binder": "B3", "values": [{"measurement": "Kd", "setting": "[2]", "value": "4050 ± 557", "unit": "nM"}]}
{"binder": "B4", "values": [{"measurement": "Kd", "setting": "[5]", "value": "3.9 ± 0.9", "unit": "nM"}, {"measurement": "Kd", "setting": "[6]", "value": "14.1 ± 0.5", "unit": "nM"}, {"measurement": "Kd", "setting": "[7]", "value": "2.2 ± 0.6", "unit": "nM"}]}
{"binder": "B5", "values": [{"measurement": "Kd", "setting": "[2]", "value": "8.5 ± 1", "unit": "nM"}]}
{"binder": "B6", "values": [{"measurement": "binding result", "setting": "[8]", "value": "binds"}]}
{"binder": "ITIPVTFE", "note": "[HSPB1 C-terminal peptide (cognate peptide of HSPB1ACD)]", "values": [{"measurement": "Kd", "setting": "[9]", "value": "≤ 100000", "unit": "nM"}]}
